Data as given in paper doi:10.1101/2020.09.30.319905.
Several values for one entry are separate records, joined by “and”; a condition that tells them apart may be missing. Equal values may be shown once.

Columns and labels:
[1] = molecular target: Truncated ApoE3, residues 80-255 (central helical repeat segment) (human) (UniProt P02649); test: SAXS
[2] = molecular target: Truncated ApoE3, residues 80-255 (central helical repeat segment) (human) (UniProt P02649); test: cross-linking

Truncated ApoE3, residues 80-255 (central helical repeat segment) (from UniProt P02649 80-255) (domain or fragment)
stoichiometry N [1]: 4 | stoichiometry N [2]: 2 and 3
